Results on two substances are retold here after patent US20140309404A1.

The target in one experiment is BMP-4. Put plainly: cell-based or functional assay.
A further experiment addresses human BMP-5 (human) (UniProt P22003). Put plainly: cell-based or functional assay.
The next experiment concerns the target BMP-9. The experiment in a line: cell-based or functional assay.
A further experiment deals with BMP-10. Put plainly: cell-based or functional assay.
Experiment [1] concerns the target human BMP-7 (human) (UniProt P18075). Put plainly: cell-based or functional assay.
In the next experiment the target is BMP-2. Put plainly: cell-based or functional assay.
Experiment [2] addresses human BMP-6 (human) (UniProt P22004). The experiment in a line: cell-based or functional assay.
Experiment [3] deals with human BMP-7 (human) (UniProt P18075). The experiment in a line: SPR (BIAcore), BMP-7 immobilised on CM4 chip, antibody injected, 37 C. For orientation: In SPR one partner is held on a chip, and binding of the other changes the refractive index at the surface.
human BMP-7 (human), sequence (P18075 293-431 limits assumed): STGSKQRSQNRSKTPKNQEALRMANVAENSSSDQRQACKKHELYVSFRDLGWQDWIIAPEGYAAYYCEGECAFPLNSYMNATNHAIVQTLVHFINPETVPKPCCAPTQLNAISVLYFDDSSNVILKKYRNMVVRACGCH
The target in experiment [4] is human BMP-6 (human) (UniProt P22004). Put plainly: SPR (BIAcore), BMP-6 immobilised on CM4 chip, antibody injected, 37 C.
human BMP-6 (human), sequence (P22004 382-513 limits assumed): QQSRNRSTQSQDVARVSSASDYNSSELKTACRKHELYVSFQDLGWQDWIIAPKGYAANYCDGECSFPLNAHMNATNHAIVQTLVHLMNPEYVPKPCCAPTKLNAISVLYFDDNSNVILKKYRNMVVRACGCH

human BMP-5 (human), sequence (P22003 317-454 limits assumed): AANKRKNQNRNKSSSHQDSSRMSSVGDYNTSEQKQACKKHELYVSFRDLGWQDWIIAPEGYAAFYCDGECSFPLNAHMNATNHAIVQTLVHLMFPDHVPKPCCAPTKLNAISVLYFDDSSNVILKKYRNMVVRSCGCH

As to human IgGPAA4 control (antibody), in the experiment with BMP-4, the Mean % Inh at 1000 nM, BMP-4 induced Hep Luc Assay was determined as 4.2%. Moreover, in the experiment with human BMP-5 (human), the Mean % Inh at 1000 nM, BMP-5 induced Hep Luc Assay was 2.5%. Also, in the experiment with BMP-9, the Mean % Inh at 1000 nM, BMP-9 induced Hep Luc Assay came out at 2.8%. Also, in the experiment with BMP-10, the Mean % Inh at 1000 nM, BMP-10 induced Hep Luc Assay came out at 5.4%. The Mean % Inh at 1000 nM, BMP-7 induced Hep Luc Assay in the experiment with human BMP-7 (human) [1] was -1.7%. In addition, in the experiment with BMP-2, the Mean % Inh at 1000 nM, BMP-2 induced Hep Luc Assay worked out at 7.8%.

For the substance MAB507 (antibody), the Mean % Inh at 1000 nM, BMP-4 induced Hep Luc Assay with BMP-4 is -65.4%. In addition, the Mean % Inh at 1000 nM, BMP-5 induced Hep Luc Assay with human BMP-5 (human) was -43.5%. Moreover, the Mean % Inh at 1000 nM, BMP-9 induced Hep Luc Assay in the experiment with BMP-9 is -76.1%. Further, the Mean % Inh at 1000 nM, BMP-10 induced Hep Luc Assay in the experiment with BMP-10 is -87.2%. The Geometric Mean IC50 (nM), BMP-6 induced Hep Luc Assay (hepcidin promoter luciferase, HepProm Luc cells) with human BMP-6 (human) [2] was determined as 22.1 nM. The Mean % Inh at 1000 nM, BMP-7 induced Hep Luc Assay with human BMP-7 (human) [1] came out at 54.2%. In addition, the Mean % Inh at 1000 nM, BMP-2 induced Hep Luc Assay with BMP-2 was -50.6%. In the experiment with human BMP-7 (human) [3], this substance gave a Kd of 23.2 nM, a koff of 0.000793 s⁻¹ and a kon of 34200 M⁻¹ s⁻¹. Besides, in the experiment with human BMP-6 (human) [4], the Kd is 1 nM, the koff is 0.000187 s⁻¹ and the kon stood at 187000 M⁻¹ s⁻¹.

As usually defined, the Kd is a measure of binding affinity in units of concentration. Low values mean a tighter complex, high ones a looser complex. A word on the koff: it is the rate constant with which the complex falls apart. As usually defined, the kon is the second-order rate constant of association. Read a high kon as fast association.
